B1: CDC34 (parent)
chain: GGYFKARLKFPIDYPYSPPAFRFL

Variants of: B1
Assay: protein stability index of a GFP-peptide fusion (GPS, HEK-293T) (PSI 1-6); higher = more stable
Settings: c terminus: a fixed tail appended
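Note: lentivirally expressed fusions sorted by FACS into six bins by GFP to DsRed ratio, PSI derived from sequencing read proportions per bin multiplied by bin number.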

Row | Variant | protein stability index
1 | GGYFKARPKFPIDYPYSPPAFRFL | 2.19
2 | GGYFKARWKFPIDYPYSPPAFRFL | 2.65
3 | GGYFKARCKFPIDYPYSPPAFRFL | 2.65
4 | GGYFKARQKFPIDYPYSPPAFRFL | 2.35
5 | GGYFKARSKFPIDYPYSPPAFRFL | 2.89
6 | GGYFKARKKFPIDYPYSPPAFRFL | 2.48
7 | GGYFKARMKFPIDYPYSPPAFRFL | 3.8
8 | GGYFKARYKFPIDYPYSPPAFRFL | 1.53
9 | GGYFKARVKFPIDYPYSPPAFRFL | 2.53
10 | GGYFKAALKFPIDYPYSPPAFRFL | 1.8
11 | GGYFKAMLKFPIDYPYSPPAFRFL | 2.51
12 | GGYFKAHLKFPIDYPYSPPAFRFL | 3.7
13 | GGYFKAVLKFPIDYPYSPPAFRFL | 3.25
14 | GGYFKAELKFPIDYPYSPPAFRFL | 2.77
15 | GGYFKANLKFPIDYPYSPPAFRFL | 2.57
16 | GGYFKAQLKFPIDYPYSPPAFRFL | 1.72
17 | GGYFKAILKFPIDYPYSPPAFRFL | 2.78
18 | GGYFKAWLKFPIDYPYSPPAFRFL | 3.18
19 | GGYFKAGLKFPIDYPYSPPAFRFL | 2.45
20 | GGYFKACLKFPIDYPYSPPAFRFL | 2.9
21 | GGYFKALLKFPIDYPYSPPAFRFL | 2.38
22 | GGYFKASLKFPIDYPYSPPAFRFL | 2.3
23 | GGYFKADLKFPIDYPYSPPAFRFL | 1.96
24 | GGYFKAKLKFPIDYPYSPPAFRFL | 3.83

Row | Variant | protein stability index
25 | GGYSKARLKFPIDYPYSPPAFRFL | 3.07
26 | GGYTKARLKFPIDYPYSPPAFRFL | 1.94
27 | GGYDKARLKFPIDYPYSPPAFRFL | 2
28 | GGYAKARLKFPIDYPYSPPAFRFL | 2.97
29 | GGYRKARLKFPIDYPYSPPAFRFL | 2.76
30 | GGYQKARLKFPIDYPYSPPAFRFL | 1.75
31 | GGYCKARLKFPIDYPYSPPAFRFL | 3.82
32 | GGYKKARLKFPIDYPYSPPAFRFL | 3.11
33 | GGYLKARLKFPIDYPYSPPAFRFL | 3.57
34 | GGYVKARLKFPIDYPYSPPAFRFL | 3.17
35 | GGYNKARLKFPIDYPYSPPAFRFL | 2.72
36 | GGYEKARLKFPIDYPYSPPAFRFL | 2.79
37 | GGYWKARLKFPIDYPYSPPAFRFL | 1.73
38 | GGYYKARLKFPIDYPYSPPAFRFL | 2.38
39 | GGYPKARLKFPIDYPYSPPAFRFL | 1.54
40 | GGYMKARLKFPIDYPYSPPAFRFL | 2.51
41 | GGYHKARLKFPIDYPYSPPAFRFL | 1.96
42 | GGYFKARLKFEIDYPYSPPAFRFL | 2.75
43 | GGYFKARLKFYIDYPYSPPAFRFL | 3.2
44 | GGYFKARLKFSIDYPYSPPAFRFL | 3.37
45 | GGYFKARLKFDIDYPYSPPAFRFL | 2.06
46 | GGYFKARLKFAIDYPYSPPAFRFL | 2.77
47 | GGYFKARLKFGIDYPYSPPAFRFL | 2.07
48 | GGYFKARLKFRIDYPYSPPAFRFL | 2.99

Row | Variant | protein stability index
49 | GGYFKARLKFNIDYPYSPPAFRFL | 3.45
50 | GGYFKARLKFCIDYPYSPPAFRFL | 3.95
51 | GGYFKARLKFLIDYPYSPPAFRFL | 4.07
52 | GGYFKARLKFTIDYPYSPPAFRFL | 2.28
53 | GGYFKARLKFIIDYPYSPPAFRFL | 2.84
54 | GGYFKARLKFKIDYPYSPPAFRFL | 2.13
55 | GGYFKARLKFWIDYPYSPPAFRFL | 2.87
56 | GGYFKARLKFMIDYPYSPPAFRFL | 3.98
57 | GGLFKARLKFPIDYPYSPPAFRFL | 2.32
58 | GGSFKARLKFPIDYPYSPPAFRFL | 1.54
59 | GGFFKARLKFPIDYPYSPPAFRFL | 1.77
60 | GGAFKARLKFPIDYPYSPPAFRFL | 2.68
61 | GGWFKARLKFPIDYPYSPPAFRFL | 2.33
62 | GGPFKARLKFPIDYPYSPPAFRFL | 3.03
63 | GGEFKARLKFPIDYPYSPPAFRFL | 1.29
64 | GGVFKARLKFPIDYPYSPPAFRFL | 2.61
65 | GGNFKARLKFPIDYPYSPPAFRFL | 2.44
66 | GGRFKARLKFPIDYPYSPPAFRFL | 3.15
67 | GGTFKARLKFPIDYPYSPPAFRFL | 2.39
68 | GGHFKARLKFPIDYPYSPPAFRFL | 3.02
69 | GGGFKARLKFPIDYPYSPPAFRFL | 1.63
70 | GGQFKARLKFPIDYPYSPPAFRFL | 3.35
71 | GGCFKARLKFPIDYPYSPPAFRFL | 3.72
72 | GGKFKARLKFPIDYPYSPPAFRFL | 3.54

Row | Variant | protein stability index
73 | GGIFKARLKFPIDYPYSPPAFRFL | 2.63
74 | GGMFKARLKFPIDYPYSPPAFRFL | 2.46
75 | GGYFKARLKIPIDYPYSPPAFRFL | 2.44
76 | GGYFKARLKNPIDYPYSPPAFRFL | 3.08
77 | GGYFKARLKWPIDYPYSPPAFRFL | 3.49
78 | GGYFKARLKDPIDYPYSPPAFRFL | 3.29
79 | GGYFKARLKHPIDYPYSPPAFRFL | 3.49
80 | GGYFKARLKYPIDYPYSPPAFRFL | 2.87
81 | GGYFKARLKMPIDYPYSPPAFRFL | 2.53
82 | GGYFKARLKCPIDYPYSPPAFRFL | 2.89
83 | GGYFKARLKQPIDYPYSPPAFRFL | 1.76
84 | GGYFKARLKVPIDYPYSPPAFRFL | 2.97
85 | GGYFKARLKSPIDYPYSPPAFRFL | 3.88
86 | GGYFKARLKRPIDYPYSPPAFRFL | 2.94
87 | GGYFKARLKEPIDYPYSPPAFRFL | 2.66
88 | GGYFKARLKGPIDYPYSPPAFRFL | 2.75
89 | GGYFKARLKFPCDYPYSPPAFRFL | 2.64
90 | GGYFKARLKFPEDYPYSPPAFRFL | 2.83
91 | GGYFKARLKFPKDYPYSPPAFRFL | 2.61
92 | GGYFKARLKFPGDYPYSPPAFRFL | 3.83
93 | GGYFKARLKFPFDYPYSPPAFRFL | 3.1
94 | GGYFKARLKFPLDYPYSPPAFRFL | 2.49

— the supplement of paper PMC10567573
